In paper PMC3075617 (Cell, 2011):
Substitutions are numbered along the chain they refer to. Names and notes keep the numbering of the source. Values joined by “and” are separate entries in the source; they are usually repeats but may differ in a detail not shown here. Identical values can stand only once.

B1: 18-58 polypeptide (lysozyme residues 18-58 with the cysteines mutated to serines) (peptide, UniProt P00698 36-76, looked up)
peptide: DNYRGYSLGNWVSAAKFESNFNTQATNRNTDGSTDYGILQI
B2: DegP^S210A/Y444A, P0C0V0 27-474 (enzyme)
chain: AETSSATTAQQMPSLAPMLEKVMPSVVSINVEGSTTVNTPRMPRNFQQFFGDDSPFCQEGSPFQSSPFCQGGQGGNGGGQQQKFMALGSGVIIDADKGYVVTNNHVVDNATVIKVQLSDGRKFDAKMVGKDPRSDIALIQIQNPKNLTAIKMADSDALRVGDYTVAIGNPFGLGETVTSGIVSALGRSGLNAENYENFIQTDAAINRGNAGGALVNLNGELIGINTAILAPDGGNIGIGFAIPSNMVKNLTSQMVEYGQVKRGELGIMGTELNSELAKAMKVDAQRGAFVSQVLPNSSAAKAGIKAGDVITSLNGKPISSFAALRAQVGTMPVGSKLTLGLLRDGKQVNVNLELQQSSQNQVDSSSIFNGIEGAEMSNKGKDQGVVVNNVKTGTPAAQIGLKKGDVIIGANQQAVKNIAELRKVLDSKPSVLALNIQRGDSTIALLMQ
B3: DegP^S210A active-site mutant (enzyme, Escherichia coli, UniProt P0C0V0 27-474, looked up)
chain: B2 chain with A444Y

How the values were obtained:
DegP = DegP (Escherichia coli, UniProt P0C0V0); type: biochemical; conditions: reporter 100 μM; no activator; 23 °C, 50 mM sodium phosphate pH 8, 100 mM NaCl
Chain of DegP (P0C0V0 27-474): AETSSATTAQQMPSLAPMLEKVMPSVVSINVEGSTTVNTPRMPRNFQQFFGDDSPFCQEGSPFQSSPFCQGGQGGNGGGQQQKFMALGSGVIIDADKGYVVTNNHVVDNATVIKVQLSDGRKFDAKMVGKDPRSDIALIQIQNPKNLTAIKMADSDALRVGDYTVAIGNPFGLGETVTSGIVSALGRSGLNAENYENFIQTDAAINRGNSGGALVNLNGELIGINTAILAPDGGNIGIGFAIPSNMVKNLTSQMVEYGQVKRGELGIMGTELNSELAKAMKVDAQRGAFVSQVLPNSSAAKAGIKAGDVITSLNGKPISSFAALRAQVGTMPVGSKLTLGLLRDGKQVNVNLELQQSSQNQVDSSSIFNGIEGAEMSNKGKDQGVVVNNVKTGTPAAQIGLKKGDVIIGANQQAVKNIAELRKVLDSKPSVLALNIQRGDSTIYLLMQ

[1] = target: B3; assay: crystal structure
[2] = target: T1, DegP^S210A/Y444A (Escherichia coli), P0C0V0; assay: SEC; conditions: remark: other sources report otherwise
T1 chain: B2 chain

[3] = target: T1, DegP^S210A/Y444A (Escherichia coli), …; assay: SEC; conditions: remark: other sources report otherwise
SEC = target: the molecule itself; assay: SEC
AUC = target: the molecule itself; assay: AUC

Molecule: Abz-KASPVSLGY^NO2D [reporter peptide]
- rate of reporter peptide cleavage by DegP alone (DegP): 0.027 min^−1 DegP^−1

Molecule: B1
- binding result [1]: binds

Molecule: B2
- stoichiometry N [2]: 6
- stoichiometry N [3]: 6

Molecule: B3
- stoichiometry N (SEC): 6
- stoichiometry N (AUC): 18 and 24 and 30
